{"source": "paper PMC5741622", "about": "“Structure of a Wbl protein and implications for NO sensing by M. tuberculosis” (Nature Communications, 2017)", "binders": {"B1": {"name": "Mycobacterium tuberculosis WhiB1, untagged, [4Fe-4S] form (holo-WhiB1), co-expressed with His-tagged σ^A or σ^ACTD (natural protein)", "chain": "MDWRHKAVCRDEDPELFFPVGNSGPALAQIADAKLVCNRCPVTTECLSWALNTGQDSGVWGGMSEDERRALKRRNARTKARTGV", "modifications": "[4Fe-4S] cluster coordinated by cysteine residues 9, 37, 40 and 46", "notes": "Iron-sulfur cluster assembled in vivo; free [4Fe-4S]; WhiB1 seen at 9668 Da and apo-WhiB1 at 9315 Da in native ESI-MS; also called [4Fe-4S]-WhiB1; untagged WhiB1"}, "B2": {"name": "His-tagged C-terminal domain (amino acids Ala447-Asp528) of M. tuberculosis σ^A (domain or fragment)", "chain": "AVDAVSFTLLQDQLQSVLDTLSEREAGVVRLRFGLTDGQPRTLDEIGQVYGVTRERIRQIESKTMSKLRHPSRSQVLRDYLD", "notes": "A thrombin cleavage site lies between the His6 tag and the domain; seen at 11,522 Da in native ESI-MS; also called His-σ^ACTD; σ^ACTD; not shown: His6, N-terminal, kept"}}, "key": {"[1]": {"molecular_target": "B2", "test": "native MS", "settings": "both partners purified"}, "[2]": {"molecular_target": "T1, M. tuberculosis σ^ACTD fused to the T18 domain of Bordetella pertussis adenylate cyclase (Mycobacterium tuberculosis, UniProt P9WGI1 447-528)", "T1 construct": "also called T18-σ^ACTD", "T1 sequence": "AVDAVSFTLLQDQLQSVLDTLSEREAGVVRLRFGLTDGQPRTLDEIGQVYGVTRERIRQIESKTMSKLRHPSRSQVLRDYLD", "test": "two-hybrid", "settings": "partners not purified"}, "[3]": {"molecular_target": "B1", "test": "pull-down", "settings": "partners not purified"}}, "data": [{"binder": "B1", "values": [{"measurement": "stoichiometry N", "setting": "[1]", "value": 1}]}, {"binder": "M. tuberculosis WhiB1 fused to the T25 domain of Bordetella pertussis adenylate cyclase (natural protein, also called T25-WhiB1) MDWRHKAVCRDEDPELFFPVGNSGPALAQIADAKLVCNRCPVTTECLSWALNTGQDSGVWGGMSEDERRALKRRNARTKARTGV", "values": [{"measurement": "β-galactosidase activity against the negative control (vectors only)", "setting": "[2]", "value": "~20", "unit": "fold"}, {"measurement": "β-galactosidase activity against the positive control (Zip-Zip)", "setting": "[2]", "value": "~3", "unit": "fold lower"}]}, {"binder": "B2", "values": [{"measurement": "binding result", "setting": "[3]", "value": "binds"}]}]}
